Measurements taken from patent US20250325672A1.
Non-standard residues stand in square brackets, D forms with d. No end group written: not given here. Sar = CNCC(=O)O

Legend:
[1] = biological target: COVID-19 S1 Spike Protein Mutant P272L (SARS-CoV-2), P0DTC2; assay: FP direct binding
[2] = biological target: COVID-19 S1 Spike Protein Mutant A262S (SARS-CoV-2), P0DTC2; assay: FP direct binding
[3] = biological target: wild-type (WT) S1 domain of the SARS-COV-2 Spike Protein (ACROBiosystems, S1N-C82E8) (SARS-CoV-2), P0DTC2; assay: FP direct binding
[4] = biological target: COVID-19 S1 Spike Protein Mutant V483A (SARS-CoV-2), P0DTC2; assay: FP direct binding
[5] = biological target: COVID-19 S1 Spike Protein Mutant N439K (SARS-CoV-2), P0DTC2; assay: FP direct binding
[6] = biological target: COVID-19 S1 Spike Protein Mutant Y453F (SARS-CoV-2), P0DTC2; assay: FP direct binding
[7] = biological target: COVID-19 S1 Spike Protein Mutant N501Y (SARS-CoV-2), P0DTC2; assay: FP direct binding
[8] = biological target: COVID-19 S1 Spike Protein Mutant G476S (SARS-CoV-2), P0DTC2; assay: FP direct binding
[9] = biological target: COVID-19 S1 Spike Protein Mutant A475V (SARS-CoV-2), P0DTC2; assay: FP direct binding
[10] = biological target: COVID-19 S1 Spike Protein Mutant E484K (SARS-CoV-2), P0DTC2; assay: FP direct binding
[11] = biological target: Biotinylated 2019-nCoV (COVID-19) S1 protein (16-685), His, Avitag (SARS-CoV-2), P0DTC2; assay: SPR, Biacore T200, geomean
[12] = biological target: COVID-19 S1 Spike Protein Mutant N354D, D364Y (SARS-CoV-2), P0DTC2; assay: FP direct binding
[13] = biological target: COVID-19 S1 Spike Protein Mutant L452R (SARS-CoV-2), P0DTC2; assay: FP direct binding
[14] = biological target: COVID-19 S1 Spike Protein Mutant F490L (SARS-CoV-2), P0DTC2; assay: FP direct binding
[15] = biological target: COVID-19 S1 Spike Protein Mutant K417N, E484K, N501Y (SARS-CoV-2), P0DTC2; assay: FP direct binding

Row | Binder | Kd [3] | Kd [4] | Kd [8] | Kd [9] | Kd [10] | further results
1 | ACFDDWTCYIQMCA[Sar][Sar][Sar][Sar][Sar][Sar]K(Fl) (not fully specified; cysteine pairing not given here) [BCY15437] |  |  |  |  |  | Kd [1]: 17 nM; Kd [2]: 15 nM
2 | CYNHANPVCRYYC (modifications not checked) [BCY16540] | > 883 nM |  |  |  |  | 
3 | ACRQSQCDWWAIRSFCA[Sar][Sar][Sar][Sar][Sar][Sar][KFl] (cysteine pairing not given here) [BCY15324] |  | 751 nM | 588 nM | 629 nM | 1490 nM | Kd [5]: 529 nM; Kd [6]: 366 nM; Kd [7]: 1260 nM
4 | CRNPDNPVCRFYC (modifications not checked) [BCY16905] |  |  |  |  |  | Kd [11]: 10 nM
5 | CPYVAGRGTCLLC (modifications not checked) [BCY16312] | 759 nM |  |  |  |  | 
6 | ACDVCGLNAFNRCA[Sar][Sar][Sar][Sar][Sar][Sar][KFl] (cysteine pairing not given here) [BCY16287] |  | 69 nM | 58 nM | 54 nM | 55 nM | Kd [12]: 1120 nM; Kd [13]: 53 nM; Kd [14]: 49 nM
7 | ACEDHDWVYCSTCA[Sar][Sar][Sar][Sar][Sar][Sar][KFl] (cysteine pairing not given here) [BCY15299] |  | 988 nM | 944 nM | 710 nM | 475 nM | Kd [5]: 531 nM; Kd [13]: 548 nM; Kd [6]: 579 nM; Kd [15]: 676 nM; Kd [7]: 935 nM; Kd [14]: 441 nM
8 | CASPDNPVCRFYC (modifications not checked) [BCY16534] | 381 nM |  |  |  |  | 
